Assays:
His-LpxA (C. sakazakii) = His-LpxA (C. sakazakii) (UniProt A7MI18)
[1] = molecular target: Labp V94A expressed from pKT25 (C. sakazakii); assay: two-hybrid; bacterial adenylate cyclase-based two-hybrid (BACTH) in E. coli BTH101, pKT25 and pUT18C fusions, β-galactosidase activity in Miller units

| Molecule | LpxA enzymatic activity: fluorescence of ThioGlo-ACP conjugates (RFU) with UDP-GlcNAc and R-3-hydroxymyristoyl-ACP; 10 nM LpxA with 300 nM His-CSK29544 02616 against LpxA alone (His-LpxA (C. sakazakii)) [fold] | fold reduction in ß-galactosidase activity compared to intact Labp [1] [fold] |
| --- | --- | --- |
| His-CSK29544_02616 (His×6-tagged CSK29544_02616 product, Labp) (natural protein) | 2 | – |
| LpxA expressed from pUT18C (enzyme) MIDKTAFIHPTAIVEEGAVIGANAHIGPFCIVGPDVKIGEGTVLKSHVVVNGHTTIGRDNEIYQFASIGEVNQDLKYAGEPTRVEIGDRNRIRESVTIHRGTAQGGGLTKVGSDNLLMINAHVAHDCTVGNRCILANNATLAGHVSVDDFAIIGGMTAVHQFCIIGAHVMVGGCSGVAQDVPPYVIAQGNHATPFGVNIEGLKRRGFSKEALHAIRNAYKLLYRSGKTLDEVKPEIAEIAAKHPEVQPFYDFFARSTRGLIR | – | 4 |

— publication PMC5770445
